* marks the point of attachment. Biotin = O=C1N[C@H]2[C@H](CS[C@H]2CCCCC(=O)*)N1; AEEA = NCCOCCOCC(=O)O
What was measured:
Assay in all cases: peptide-walk ELISA, biotin-peptide on streptavidin plate, triple determination
[1] = biological target: T1, biotinylated 16mer hTLT-1 stalk peptide 39 (SMILES …)
T1 construct: also called well D 3
T1 peptide: {Biotin-AEEA}-ETHKIGSLAENAFSDP-NH2
Protocol: (§1) Epitope mapping by peptide walk. The peptide walking ELISA defined the minimal binding region of the peptide. This was established by coating biotinylated peptides with one residue frameshift in the stalk region of TLT-1 in streptavidin plates followed by binding of the antibody of interest (mAb 0061). A secondary antibody was added for detection and binding was measured at 450 nm. Positive control: binding to biotinylated TLT-1.
(§2) 1) 20mer peptide mapping with one residue frameshift (20,1) (see materials) 2) 16mer peptide mapping with one residue frameshift (16,1) (see materials) [0687] 1. Plate was prre-washed 3× with 250 μl wash buffer [0688] 2. 100 μl Biotinylated peptide-solution was added (from Masterplate 10000× diluted, one peptide pr well) [0689] 3. Incubated at RT for 1 hour or +5° C. over night [0690] 4. Washed 3× with wash buffer [0691] 5. 100 μl Primary antibody was added (dilution see above) [0692] 6. Incubated at RT for 1 hour [0693] 7. Washed 3× with wash buffer [0694] 8. 100 μl Secondary antibody was added (dilution see above) [0695] 9. Incubated at RT for 1 hour [0696] 10. Washed 3× with wash buffer [0697] 11. 100 μl Substrate/Develop buffer was added (Reaction time 3 min) [0698] 12. 100 μl 2M H3PO4 was added [0699] 13. Endpoint was read at 450 nm

[2] = biological target: T2, biotinylated 20mer TLT-1 stalk peptide 12 (N-terminal biotin via 8-amino-3,6-dioxaoctanoic acid (bio-Oeg))
T2 construct: also called well A12
T2 peptide: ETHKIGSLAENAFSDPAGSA
Protocol: as §1, §2

[3] = biological target: T3, biotinylated 20mer TLT-1 stalk peptide 6 (N-terminal biotin via 8-amino-3,6-dioxaoctanoic acid (bio-Oeg))
T3 construct: also called well A 6
T3 peptide: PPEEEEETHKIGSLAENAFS
Protocol: as §1, §2

[4] = biological target: T4, biotinylated 20mer TLT-1 stalk peptide 9 (N-terminal biotin via 8-amino-3,6-dioxaoctanoic acid (bio-Oeg))
T4 construct: also called well A 9
T4 peptide: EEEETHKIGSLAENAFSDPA
Protocol: as §1, §2

[5] = biological target: T5, biotinylated 20mer TLT-1 stalk peptide 8 (N-terminal biotin via 8-amino-3,6-dioxaoctanoic acid (bio-Oeg))
T5 construct: also called well A 8
T5 peptide: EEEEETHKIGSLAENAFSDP
Protocol: as §1, §2

[6] = biological target: T6, biotinylated 20mer TLT-1 stalk peptide 11 (N-terminal biotin via 8-amino-3,6-dioxaoctanoic acid (bio-Oeg))
T6 construct: also called well A11
T6 peptide: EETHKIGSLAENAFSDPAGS
Protocol: as §1, §2

[7] = biological target: T7, biotinylated 20mer TLT-1 stalk peptide 16 (N-terminal biotin via 8-amino-3,6-dioxaoctanoic acid (bio-Oeg))
T7 construct: also called well B 4
T7 peptide: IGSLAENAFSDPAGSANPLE
Protocol: as §1, §2

[8] = biological target: T8, biotinylated 20mer TLT-1 stalk peptide 14 (N-terminal biotin via 8-amino-3,6-dioxaoctanoic acid (bio-Oeg))
T8 construct: also called well B 2
T8 peptide: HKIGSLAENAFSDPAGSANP
Protocol: as §1, §2

[9] = biological target: T9, biotinylated 16mer hTLT-1 stalk peptide 37 (SMILES …)
T9 construct: also called well D 1
T9 peptide: {Biotin-AEEA}-EEETHKIGSLAENAFS-NH2
Protocol: as §1, §2

[10] = biological target: T10, biotinylated 16mer hTLT-1 stalk peptide 42 (SMILES …)
T10 construct: also called well D 6
T10 peptide: {Biotin-AEEA}-KIGSLAENAFSDPAGS-NH2
Protocol: as §1, §2

[11] = biological target: T11, biotinylated 20mer TLT-1 stalk peptide 15 (N-terminal biotin via 8-amino-3,6-dioxaoctanoic acid (bio-Oeg))
T11 construct: also called well B 3
T11 peptide: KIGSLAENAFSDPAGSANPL
Protocol: as §1, §2

[12] = biological target: T12, biotinylated 16mer hTLT-1 stalk peptide 41 (SMILES …)
T12 construct: also called well D 5
T12 peptide: {Biotin-AEEA}-HKIGSLAENAFSDPAG-NH2
Protocol: as §1, §2

[13] = biological target: T13, biotinylated 20mer TLT-1 stalk peptide 5 (N-terminal biotin via 8-amino-3,6-dioxaoctanoic acid (bio-Oeg))
T13 construct: also called well A 5
T13 peptide: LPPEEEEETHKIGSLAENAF
Protocol: as §1, §2

absorbance at 450 nm [1]: > 3 A450
absorbance at 450 nm [2]: > 3 A450
absorbance at 450 nm [3]: > 3 A450
absorbance at 450 nm [4]: > 3 A450
absorbance at 450 nm [5]: > 3 A450
absorbance at 450 nm [6]: > 3 A450
absorbance at 450 nm [7]: > 3 A450
absorbance at 450 nm [8]: > 3 A450
absorbance at 450 nm [9]: > 3 A450
absorbance at 450 nm [10]: > 3 A450
absorbance at 450 nm [11]: > 3 A450
absorbance at 450 nm [12]: > 3 A450
absorbance at 450 nm [13]: > 3 A450
B1: mAb 0061 HC2; LC2 (antibody, V domains shown)
VH: EVKLLESGGGLVQPGGSLKLSCAASGFDFSRYWMTWVRQAPGKGLEWIGEINPDSSTINYNPSLKDKFIISRDNAKNTLYLQMSEVRSEDTALYYCASGVFTSWGQGTLVTVSA
VL: DVVMTQTPLSLPVSLGDQASISCRSSQSLVHRNGNTYFHWALQKPGQSPKLLIYKVSNRFSGVPDRFSGSGSGTDFTLKISRVEAEDLGVYFCSQSTHVPYTFGGGTKLEIKR
notes: also called 0197-0000-0061; 0012HC.T60N + 0012LC.C36A

Reference: patent US20120178908A1 (Novo Nordisk, published 2012)
